Kd data for 27 molecules are collected here from PMC10786891, “Massively parallel profiling of RNA-targeting CRISPR-Cas13d”.

T1: EsCas13d, nuclease-dead (Eubacterium siraeum, UniProt B0MS50, R295A;H300A;R849A;H854A)
T1 sequence: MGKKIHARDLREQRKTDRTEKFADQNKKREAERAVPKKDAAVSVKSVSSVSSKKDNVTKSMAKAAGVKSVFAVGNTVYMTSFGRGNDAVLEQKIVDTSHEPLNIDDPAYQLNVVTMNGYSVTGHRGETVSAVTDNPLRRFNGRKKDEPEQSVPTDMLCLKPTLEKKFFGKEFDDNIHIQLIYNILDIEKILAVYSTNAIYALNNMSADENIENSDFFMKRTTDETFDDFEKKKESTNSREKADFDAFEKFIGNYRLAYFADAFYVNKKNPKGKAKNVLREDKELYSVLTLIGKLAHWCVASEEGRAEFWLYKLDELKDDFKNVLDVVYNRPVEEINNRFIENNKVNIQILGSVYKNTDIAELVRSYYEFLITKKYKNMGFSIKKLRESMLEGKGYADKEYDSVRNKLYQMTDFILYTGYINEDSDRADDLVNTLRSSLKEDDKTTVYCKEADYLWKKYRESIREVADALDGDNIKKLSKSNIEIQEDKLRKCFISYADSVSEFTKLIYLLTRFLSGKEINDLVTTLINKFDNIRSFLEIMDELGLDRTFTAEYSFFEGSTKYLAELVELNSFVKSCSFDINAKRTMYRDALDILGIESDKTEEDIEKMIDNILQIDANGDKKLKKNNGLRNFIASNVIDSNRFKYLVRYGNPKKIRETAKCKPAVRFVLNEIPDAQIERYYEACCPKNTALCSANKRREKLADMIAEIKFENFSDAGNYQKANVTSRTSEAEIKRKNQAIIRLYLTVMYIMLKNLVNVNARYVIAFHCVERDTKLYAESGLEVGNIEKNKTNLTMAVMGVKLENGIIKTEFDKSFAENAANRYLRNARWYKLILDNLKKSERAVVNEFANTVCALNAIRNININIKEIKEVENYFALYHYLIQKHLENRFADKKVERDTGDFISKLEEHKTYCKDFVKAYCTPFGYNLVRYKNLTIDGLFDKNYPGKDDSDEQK

B1: target 1 A14G (mixed)
RNA 1: CACCCGUGCAAAAAUGCAGGGGUCUAAAACUGAGCGGAUAACCUCUCUAUGG
RNA 2: GGGAAUGGAUCCACAUCUACGAAUUCGUACCAUAGAGGGGUUAUCCGCUCACCGAGAUCGGAAGAGCACACGU
B2: target 1 C6G,U8C (mixed)
RNA 1: CACCCGUGCAAAAAUGCAGGGGUCUAAAACUGAGCGGAUAACCUCUCUAUGG
RNA 2: GGGAAUGGAUCCACAUCUACGAAUUCGUACCAUAGAGAGGUUACCGGCUCACCGAGAUCGGAAGAGCACACGU
B3: target 2 MT 5'PFS GCC 3'PFS CUU (mixed)
RNA 1: CACCCGUGCAAAAUUGCAGGGGUCUAAAACCUUCUCCAAAUUGUUUCAUCCU
RNA 2: GGGAAUGGAUCCACAUCUACGAAUUCGCCAGGAUGAAACAAUUUGGAGAAGCUUAGAUCGGAAGAGCACACGU
B4: target 2 MT 5'PFS GAU 3'PFS CUA (mixed)
RNA 1: CACCCGUGCAAAAUUGCAGGGGUCUAAAACCUUCUCCAAAUUGUUUCAUCCU
RNA 2: GGGAAUGGAUCCACAUCUACGAAUUCGAUAGGAUGAAACAAUUUGGAGAAGCUAAGAUCGGAAGAGCACACGU
B5: target 2 MT 5'PFS GGG 3'PFS CAG (mixed)
RNA 1: CACCCGUGCAAAAUUGCAGGGGUCUAAAACCUUCUCCAAAUUGUUUCAUCCU
RNA 2: GGGAAUGGAUCCACAUCUACGAAUUCGGGAGGAUGAAACAAUUUGGAGAAGCAGAGAUCGGAAGAGCACACGU
B6: target 2 MT 5'PFS GGG 3'PFS CAC (mixed)
RNA 1: CACCCGUGCAAAAUUGCAGGGGUCUAAAACCUUCUCCAAAUUGUUUCAUCCU
RNA 2: GGGAAUGGAUCCACAUCUACGAAUUCGGGAGGAUGAAACAAUUUGGAGAAGCACAGAUCGGAAGAGCACACGU
B7: target 2 MT 5'PFS CUC 3'PFS CGC (mixed)
RNA 1: CACCCGUGCAAAAUUGCAGGGGUCUAAAACCUUCUCCAAAUUGUUUCAUCCU
RNA 2: GGGAAUGGAUCCACAUCUACGAAUUCCUCAGGAUGAAACAAUUUGGAGAAGCGCAGAUCGGAAGAGCACACGU
B8: target 2 MT 5'PFS AUG 3'PFS AUC (mixed)
RNA 1: CACCCGUGCAAAAUUGCAGGGGUCUAAAACCUUCUCCAAAUUGUUUCAUCCU
RNA 2: GGGAAUGGAUCCACAUCUACGAAUUCAUGAGGAUGAAACAAUUUGGAGAAGAUCAGAUCGGAAGAGCACACGU
B9: target 2 MT 5'PFS GAU 3'PFS CUC (mixed)
RNA 1: CACCCGUGCAAAAUUGCAGGGGUCUAAAACCUUCUCCAAAUUGUUUCAUCCU
RNA 2: GGGAAUGGAUCCACAUCUACGAAUUCGAUAGGAUGAAACAAUUUGGAGAAGCUCAGAUCGGAAGAGCACACGU
B10: target 2 MT 5'PFS GGG 3'PFS CAU (mixed)
RNA 1: CACCCGUGCAAAAUUGCAGGGGUCUAAAACCUUCUCCAAAUUGUUUCAUCCU
RNA 2: GGGAAUGGAUCCACAUCUACGAAUUCGGGAGGAUGAAACAAUUUGGAGAAGCAUAGAUCGGAAGAGCACACGU
B11: target 2 MT 5'PFS AUG 3'PFS AUU (mixed)
RNA 1: CACCCGUGCAAAAUUGCAGGGGUCUAAAACCUUCUCCAAAUUGUUUCAUCCU
RNA 2: GGGAAUGGAUCCACAUCUACGAAUUCAUGAGGAUGAAACAAUUUGGAGAAGAUUAGAUCGGAAGAGCACACGU
B12: target 2 MT 5'PFS GGA 3'PFS AGA (mixed)
RNA 1: CACCCGUGCAAAAUUGCAGGGGUCUAAAACCUUCUCCAAAUUGUUUCAUCCU
RNA 2: GGGAAUGGAUCCACAUCUACGAAUUCGGAAGGAUGAAACAAUUUGGAGAAGAGAAGAUCGGAAGAGCACACGU
B13: target 2 MT 5'PFS GAU 3'PFS CUG (mixed)
RNA 1: CACCCGUGCAAAAUUGCAGGGGUCUAAAACCUUCUCCAAAUUGUUUCAUCCU
RNA 2: GGGAAUGGAUCCACAUCUACGAAUUCGAUAGGAUGAAACAAUUUGGAGAAGCUGAGAUCGGAAGAGCACACGU
B14: target 2 MT 5'PFS UAG 3'PFS UCU (mixed)
RNA 1: CACCCGUGCAAAAUUGCAGGGGUCUAAAACCUUCUCCAAAUUGUUUCAUCCU
RNA 2: GGGAAUGGAUCCACAUCUACGAAUUCUAGAGGAUGAAACAAUUUGGAGAAGUCUAGAUCGGAAGAGCACACGU
B15: target 2 MT 5'PFS AAC 3'PFS UCU (mixed)
RNA 1: CACCCGUGCAAAAUUGCAGGGGUCUAAAACCUUCUCCAAAUUGUUUCAUCCU
RNA 2: GGGAAUGGAUCCACAUCUACGAAUUCAACAGGAUGAAACAAUUUGGAGAAGUCUAGAUCGGAAGAGCACACGU
B16: target 2 MT 5'PFS AAC 3'PFS UCA (mixed)
RNA 1: CACCCGUGCAAAAUUGCAGGGGUCUAAAACCUUCUCCAAAUUGUUUCAUCCU
RNA 2: GGGAAUGGAUCCACAUCUACGAAUUCAACAGGAUGAAACAAUUUGGAGAAGUCAAGAUCGGAAGAGCACACGU
B17: target 2 MT 5'PFS ACA 3'PFS CAU (mixed)
RNA 1: CACCCGUGCAAAAUUGCAGGGGUCUAAAACCUUCUCCAAAUUGUUUCAUCCU
RNA 2: GGGAAUGGAUCCACAUCUACGAAUUCACAAGGAUGAAACAAUUUGGAGAAGCAUAGAUCGGAAGAGCACACGU
B18: target 2 MT 5'PFS UUU 3'PFS UCA (mixed)
RNA 1: CACCCGUGCAAAAUUGCAGGGGUCUAAAACCUUCUCCAAAUUGUUUCAUCCU
RNA 2: GGGAAUGGAUCCACAUCUACGAAUUCUUUAGGAUGAAACAAUUUGGAGAAGUCAAGAUCGGAAGAGCACACGU
B19: target 2 MT 5'PFS GGG 3'PFS CAA (mixed)
RNA 1: CACCCGUGCAAAAUUGCAGGGGUCUAAAACCUUCUCCAAAUUGUUUCAUCCU
RNA 2: GGGAAUGGAUCCACAUCUACGAAUUCGGGAGGAUGAAACAAUUUGGAGAAGCAAAGAUCGGAAGAGCACACGU
B20: target 2 MT 5'PFS UAG 3'PFS UCA (mixed)
RNA 1: CACCCGUGCAAAAUUGCAGGGGUCUAAAACCUUCUCCAAAUUGUUUCAUCCU
RNA 2: GGGAAUGGAUCCACAUCUACGAAUUCUAGAGGAUGAAACAAUUUGGAGAAGUCAAGAUCGGAAGAGCACACGU
B21: target 2 MT 5'PFS GGA 3'PFS AGU (mixed)
RNA 1: CACCCGUGCAAAAUUGCAGGGGUCUAAAACCUUCUCCAAAUUGUUUCAUCCU
RNA 2: GGGAAUGGAUCCACAUCUACGAAUUCGGAAGGAUGAAACAAUUUGGAGAAGAGUAGAUCGGAAGAGCACACGU
B22: target 2 MT 5'PFS GGA 3'PFS AGG (mixed)
RNA 1: CACCCGUGCAAAAUUGCAGGGGUCUAAAACCUUCUCCAAAUUGUUUCAUCCU
RNA 2: GGGAAUGGAUCCACAUCUACGAAUUCGGAAGGAUGAAACAAUUUGGAGAAGAGGAGAUCGGAAGAGCACACGU
B23: target 2 MT 5'PFS AUG 3'PFS AUA (mixed)
RNA 1: CACCCGUGCAAAAUUGCAGGGGUCUAAAACCUUCUCCAAAUUGUUUCAUCCU
RNA 2: GGGAAUGGAUCCACAUCUACGAAUUCAUGAGGAUGAAACAAUUUGGAGAAGAUAAGAUCGGAAGAGCACACGU
B24: target 2 MT 5'PFS CUC 3'PFS CGA (mixed)
RNA 1: CACCCGUGCAAAAUUGCAGGGGUCUAAAACCUUCUCCAAAUUGUUUCAUCCU
RNA 2: GGGAAUGGAUCCACAUCUACGAAUUCCUCAGGAUGAAACAAUUUGGAGAAGCGAAGAUCGGAAGAGCACACGU
B25: target 2 MT 5'PFS ACA 3'PFS CAG (mixed)
RNA 1: CACCCGUGCAAAAUUGCAGGGGUCUAAAACCUUCUCCAAAUUGUUUCAUCCU
RNA 2: GGGAAUGGAUCCACAUCUACGAAUUCACAAGGAUGAAACAAUUUGGAGAAGCAGAGAUCGGAAGAGCACACGU
B26: target 2 MT 5'PFS UUU 3'PFS UCC (mixed)
RNA 1: CACCCGUGCAAAAUUGCAGGGGUCUAAAACCUUCUCCAAAUUGUUUCAUCCU
RNA 2: GGGAAUGGAUCCACAUCUACGAAUUCUUUAGGAUGAAACAAUUUGGAGAAGUCCAGAUCGGAAGAGCACACGU
B27: target 2 MT 5'PFS GAU 3'PFS CUU (mixed)
RNA 1: CACCCGUGCAAAAUUGCAGGGGUCUAAAACCUUCUCCAAAUUGUUUCAUCCU
RNA 2: GGGAAUGGAUCCACAUCUACGAAUUCGAUAGGAUGAAACAAUUUGGAGAAGCUUAGAUCGGAAGAGCACACGU

The data set deals with T1, EsCas13d, nuclease-dead. Briefly: crRNA (strand 1, pre-loaded); Mg2+; 40 mM Tris-HCl pH 7.5, 150 mM NaCl, 6 mM MgCl2, 1 mM DTT, 0.1% Tween-20, 0.2 mg/ml BSA; 25 C; 10 min per concentration, then washed. The note with it: tags: His6-TwinStrep-SUMO cleaved; N-terminal SNAP kept (SNAP-Surface 488); label: 3' end held by stalled T7 RNA polymerase.
For the molecule B1, binding was put at a Kd of 13.9 ± 0.7 nM.
The same measure for B2: 11.9 ± 0.6 nM.
With B3 the figure was 10.5 ± 1.9 nM; with B4, 11.9 ± 1.7 nM.
Regarding B5, the Kd is 9 ± 0.8 nM.
B6: the Kd worked out at 9.4 ± 1 nM.
With B7 the figure was 2.25 ± 0.29 nM.
The molecule B8 had a Kd of 9.3 ± 1.6 nM.
With B9 the figure was 17.8 ± 2.4 nM.
With B10 the figure was 8 ± 0.8 nM.
The molecule B11 gave a Kd of 9.9 ± 1.2 nM.
Take B12: binding was put at a Kd of 8.7 ± 1.1 nM.
For B13, binding was put at a Kd of 14.9 ± 2 nM.
With B14 the figure was 38 ± 10 nM; with B15, 14 ± 4 nM.
With B16 the figure was 9.3 ± 2.5 nM; with B17, 4.4 ± 1 nM.
With B18, the Kd amounted to 8.7 ± 1 nM.
In turn, B19 yielded a Kd of 4.9 ± 0.5 nM.
On to B20, for which the Kd is 4.8 ± 0.7 nM.
The same measure for B21: 14.1 ± 1.4 nM; for B22: 8.4 ± 0.6 nM.
B23 showed a Kd of 9 ± 1.1 nM.
With B24 the figure was 1.62 ± 0.31 nM.
B25 returned a Kd of 4.8 ± 0.9 nM.
The same measure for B26: 20.7 ± 1.9 nM.
The same measure for B27: 22 ± 4 nM.

For orientation: Kd means the equilibrium constant for the complex coming apart. A lower Kd goes with tighter binding.
